Measured values published in US9265844B2, “Protease degradable polypeptides and uses thereof” (THE METHODIST HOSPITAL SYSTEM, priority 2010, dated 2016).
Non-standard residues stand in square brackets, D forms with d. Residues, ends and D or L forms follow the SMILES beside them. *: point of attachment. Dnp = O=[N+]([O-])c1ccc(*)c([N+](=O)[O-])c1; Mca = COc1ccc2c(CC(=O)*)cc(=O)oc2c1

Legend:
Format in all cases: biochemical
[1] = molecular target: T1, Cath E (Homo sapiens, UniProt P14091); experiment: Enzyme digestion, fragments by RP-HPLC and ESI-MS (Cath E); design: purchased Calbiochem, EMD Bioscience (Gibbstown, N.J.); conditions: excess Cath E, 37° C., 3 hours
T1 sequence (P14091 54-396): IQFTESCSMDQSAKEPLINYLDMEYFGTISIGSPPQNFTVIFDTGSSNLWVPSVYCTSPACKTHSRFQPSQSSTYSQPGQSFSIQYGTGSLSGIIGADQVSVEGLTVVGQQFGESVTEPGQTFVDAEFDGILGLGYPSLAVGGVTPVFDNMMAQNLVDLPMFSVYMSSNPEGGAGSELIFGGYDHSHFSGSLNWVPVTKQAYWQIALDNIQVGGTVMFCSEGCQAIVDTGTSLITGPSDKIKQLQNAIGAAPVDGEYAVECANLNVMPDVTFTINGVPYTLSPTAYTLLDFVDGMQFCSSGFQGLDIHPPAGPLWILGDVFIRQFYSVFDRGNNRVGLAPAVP
Description: Substrate e was subjected to aspartic peptidase digestion using Cath E and Cath D. Fluorogenic substrate e (10 μL, 100 μM) was incubated at 37° C. for 3 hours with excess Cath E or Cath D (˜119 pmol) in 100 μL, of 50 mM sodium acetate buffer (pH 4) containing 150 mM NaCl. The resulting digestion fragments were analyzed by the aforementioned analytical RP-HPLC and ESI-MS.

[2] = molecular target: T2, Cath B (Homo sapiens, UniProt P07858); experiment: FRET hydrolysis of substrate e by Cath B; conditions: 90 minutes, pH 6.5
T2 construct: purchased Calbiochem, EMD Bioscience (Gibbstown, N.J.)
Description: (§1) The catalytic selectivity of Cath E and Cath D was determined fluorometrically by FRET-based hydrolysis of intramolecularly quenched peptide substrates a-e. Fluorogenic substrates a-e (10 μL, 200 μM) were incubated with 23 pmol of Cath E or Cath D in 50 mM sodium acetate buffer, pH 4, containing 150 mM NaCl, and the total volume was brought to 100 μL, using the same buffer. Cath S and Cath B were pre-activated by incubation with 100 mM sodium acetate buffer solution, pH 6.5, containing 5 mM DTT and 5 mM EDTA for 5 minutes. Cath S and Cath B (23 pmol) were incubated with 10 μL, of 200 μM fluorogenic substrate e at 100 mM sodium acetate buffer solution, pH6.5, containing 5 mM DTT and 5 mM EDTA, and the total volume was brought to 100 μL, using the same buffer. All assays were performed in triplicate in 96 well black walls, clear-bottom plates (Corning, N.Y.). The change in the fluorescence intensity was monitored over time using SpectraMax.M2^e fluorescence spectrophotometer (Molecular Devices; Sunnyvale, Calif.) at excitation wavelength (λex) of 340 nm and emission wavelength (λem) of 405 nm at 37° C. Control experiments were performed simultaneously by replacing the enzyme with assay buffer.

[3] = molecular target: T3, Cath S (Homo sapiens, UniProt P25774); experiment: FRET hydrolysis of substrate e by Cath S; conditions: 90 minutes, pH 6.5
T3 construct: purchased Calbiochem, EMD Bioscience (Gibbstown, N.J.)
T3 sequence (P25774 115-331): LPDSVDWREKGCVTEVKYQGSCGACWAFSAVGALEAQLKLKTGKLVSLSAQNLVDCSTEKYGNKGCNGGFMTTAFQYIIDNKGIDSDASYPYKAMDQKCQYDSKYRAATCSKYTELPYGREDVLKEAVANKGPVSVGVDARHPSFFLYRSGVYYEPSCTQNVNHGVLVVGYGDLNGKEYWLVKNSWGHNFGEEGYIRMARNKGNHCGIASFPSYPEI
Description: as §1

[4] = molecular target: T1, Cath E; experiment: FRET hydrolysis of quenched substrates a-e by Cath E; design: purchased Calbiochem, EMD Bioscience (Gibbstown, N.J.); conditions: for time to saturation of fluorescence on activation by Cath E: 23 pmol Cath E
Description: as §1

[5] = molecular target: T4, Cath D (Homo sapiens, UniProt P07339); experiment: Enzyme digestion, fragments by RP-HPLC and ESI-MS (Cath D); conditions: high dose of Cath D, overnight hydrolysis
T4 sequence (P07339 65-412): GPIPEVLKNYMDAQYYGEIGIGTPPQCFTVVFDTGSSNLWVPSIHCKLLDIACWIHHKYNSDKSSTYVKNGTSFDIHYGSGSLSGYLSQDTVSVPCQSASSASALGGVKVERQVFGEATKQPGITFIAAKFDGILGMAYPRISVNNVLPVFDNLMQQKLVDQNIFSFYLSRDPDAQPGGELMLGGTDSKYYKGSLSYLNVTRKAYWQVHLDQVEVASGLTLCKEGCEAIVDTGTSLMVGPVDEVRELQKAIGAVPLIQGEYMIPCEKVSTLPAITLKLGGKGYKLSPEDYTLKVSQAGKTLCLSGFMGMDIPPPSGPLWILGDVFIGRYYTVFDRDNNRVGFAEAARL
Description: Substrate e was subjected to aspartic peptidase digestion using Cath E and Cath D. […] The resulting digestion fragments were analyzed by the aforementioned analytical RP-HPLC and ESI-MS.

[6] = molecular target: T1, Cath E; experiment: Reported specificity constants of Cath E for various substrates; design: purchased Calbiochem, EMD Bioscience (Gibbstown, N.J.); conditions: sequence 3 vs sequence 2
Excerpt: Table 4 compiles the reported specificity constant (Kcat/Km) of Cath E and Cath D using various substrates including peptide substrate e. […] The specificity constant of Cath E for substrate e represents one of the highest reported Kcat/Km values.

[7] = molecular target: T4, Cath D; experiment: FRET hydrolysis of quenched substrates a-e by Cath D; conditions: compared among substrates a-e
Description: as §1

[8] = substrate: COc1ccc2c(CC(=O)N[C@@H](C)C(=O)NCC(=O)N[C@@H](Cc3ccccc3)C(=O)N[C@@H](CO)C(=O)N[C@@H](CC(C)C)C(=O)N3CCC[C@H]3C(=O)N[C@@H](C)C(=O)N[C@@H](CCCCNc3ccc([N+](=O)[O-])cc3[N+](=O)[O-])C(=O)N[C@H](CCCNC(=N)N)C(N)=O)cc(=O)oc2c1; experiment: Kinetic parameters of substrate e hydrolysis by Cath E; conditions: other: Cath E 6.8 nM, pH 4.0, 10 minutes, 37° C., Woolf transformation
Description: The initial rates of substrate e hydrolysis by Cath E were monitored using a fluorescence plate-reader. Hydrolysis of different substrate e concentrations, 10, 20, 40 and 60 μM, was performed at pH 4 in 50 mM sodium acetate buffer containing 150 mM NaCl. Cath E with various concentrations, 2.27, 4.55, 6.82 nM, were incubated with substrate e and the changes in the fluorescence intensities were monitored for 10 minutes. The substrate e hydrolysis was determined by integrating the fluorescence intensity, and plotted by the amount of the hydrolyzed substrate e over time.
The initial velocities of the hydrolysis reactions were measured between 0 and 10 minutes using several concentrations of substrate e including: 5, 10, 20, 40, 60, 80, 100 μM. All of the used substrate e concentrations were much higher than the concentrations of enzyme (2.3, 4.5 and 6.8 nM). To measure the initial rates of the substrate e proteolysis and to determine Michaelis-Menten kinetic parameters Vmax and Km of the Cath E and Cath D, the Michaelis-Menten equation was transformed using the Woolf kinetic transformation [S/v=(S/Vmax)+(Km/Vmax)]. The initial velocity was calculated from the slope during the linear phase of the reaction and S/Vplotted versus substrate e concentration. The graph representation gave straight lines and Vmax and Km were calculated by the linear regression of the line to obtain the slope and intercept. The turnover number of Cath E enzyme (Kcat) was calculated using the equation Kcat=Vmax/[Cath E], where [Cath E] represents the Cath E concentration in μM and Vmax is the maximum velocity in μM S-1. All the reactions and measurements were carried out in 50 mM sodium acetate buffers (pH 4.0) using the aforementioned setting.

## COc1ccc2c(CC(=O)N[C@@H](C)C(=O)NCC(=O)N[C@@H](Cc3ccccc3)C(=O)N[C@@H](CO)C(=O)N[C@@H](CC(C)C)C(=O)N3CCC[C@H]3C(=O)N[C@@H](C)C(=O)N[C@@H](CCCCNc3ccc([N+](=O)[O-])cc3[N+](=O)[O-])C(=O)N[C@H](CCCNC(=N)N)C(N)=O)cc(=O)oc2c1 [Substrate e, Mca-Ala-Gly-Phe-Ser-Leu**Pro-Ala-Lys(Dnp)-DArg-CONH2] (Mca-AGFSLPAK(Dnp)[dR]-NH2)
[1]
  cleavage site: exclusively between Leu^5 and Pro^6
[2]
  fluorescent signal increase relative to that observed with Cath E: less than 15%
[3]
  fluorescent signal increase relative to that observed with Cath E: less than 15%
[4]; 200 μM substrate, pH 4.0
  time to saturation of fluorescence on activation by Cath E: ≤ 10 min
[4]; 1 minute / initial time point, 200 μM substrate, 23 pmol enzyme, pH 4.0
  net fluorescence signal ratio (Cath E/Cath D): 265 fold
[5]
  cleavage sites: two minor cleavage sites

## Mca-Ala-Gly-Phe-Ser-Leu**Gly-Pro-Lys(Dnp)-DArg-CONH2 (Mca-AGFSLGPK(Dnp)[dR]-NH2; SMILES COc1ccc2c(CC(=O)N[C@@H](C)C(=O)NCC(=O)N[C@@H](Cc3ccccc3)C(=O)N[C@@H](CO)C(=O)N[C@@H](CC(C)C)C(=O)NCC(=O)N3CCC[C@H]3C(=O)N[C@@H](CCCCNc3ccc([N+](=O)[O-])cc3[N+](=O)[O-])C(=O)N[C@H](CCCNC(=N)N)C(N)=O)cc(=O)oc2c1) [Substrate d]
[4]; 200 μM substrate, pH 4.0
  time to saturation of fluorescence on activation by Cath E: did not reach saturation within the monitored period

## Mca-Gly-Ser-Pro-Ala-Phe**Leu-Ala-Lys(Dnp)-DArg-CONH2 (Mca-GSPAFLAK(Dnp)[dR]-NH2; SMILES COc1ccc2c(CC(=O)NCC(=O)N[C@@H](CO)C(=O)N3CCC[C@H]3C(=O)N[C@@H](C)C(=O)N[C@@H](Cc3ccccc3)C(=O)N[C@@H](CC(C)C)C(=O)N[C@@H](C)C(=O)N[C@@H](CCCCNc3ccc([N+](=O)[O-])cc3[N+](=O)[O-])C(=O)N[C@H](CCCNC(=N)N)C(N)=O)cc(=O)oc2c1) [Substrate a]
[4]; compared among substrates a-e
  fluorescence increase upon incubation with Cath E: the fastest increase and the highest fluorescence signal among all investigated substrates
[6]
  Kcat/Km for Cath E relative to sequence 2: around 16 fold
[7]
  fluorescence increase / hydrolysis upon incubation with Cath D: the highest among all investigated substrates

B1: Cath E (Homo sapiens) (protein)
chain: T1 sequence (P14091 54-396)
notes: purchased Calbiochem, EMD Bioscience (Gibbstown, N.J.)
[8]
  Km: 19.37 µM
  Vmax: 2.2 μM S^−1
  kcat: 322.5 S^−1
  kcat/Km: 16.7 μM^−1 S^−1
